Data published in paper PMC11414716, “Structural insights into polyamine spermidine uptake by the ABC transporter PotD-PotABC” (Science Advances, 2024).

T1: PotD (wild type), spermidine-binding protein (E. coli K12, UniProt P0AFK9 24-348)
T1 construct: expressed from the entire potABCD operon; Hexahistidine tag is called noncleavable; also called PoD wild-type; source: E. coli C41, expressed from the potABCD operon with the tag on PotD; purified (Ni-NTA, Superose 6 SEC); in lysate for the co-purification attempt; not shown: His6, C-terminal, kept
T1 sequence (looked up): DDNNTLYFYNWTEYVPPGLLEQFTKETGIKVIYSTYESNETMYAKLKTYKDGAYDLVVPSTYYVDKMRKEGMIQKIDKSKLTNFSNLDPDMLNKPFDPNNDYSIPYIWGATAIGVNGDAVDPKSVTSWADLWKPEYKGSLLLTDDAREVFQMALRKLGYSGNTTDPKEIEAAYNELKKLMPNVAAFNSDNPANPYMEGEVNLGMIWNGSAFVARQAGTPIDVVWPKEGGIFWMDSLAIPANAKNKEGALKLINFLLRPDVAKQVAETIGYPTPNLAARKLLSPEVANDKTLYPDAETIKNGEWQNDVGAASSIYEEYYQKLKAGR


Key:
[1] = biological target: T1, PotD (wild type), spermidine-binding …; assay: cryo-EM structure; PotD-PotABC E173Q complex formed with Spd, ATP and Mg2+, in LMNG; Spd-bound pretranslocation state (3.1 Å) and ATP-bound translocation intermediate state (3 Å; dataset 2 with 3 mM Fos-Choline-8); settings: both partners purified
[2] = biological target: the molecule itself; assay: cryo-EM structure; wild-type PotABC complex reconstituted into MSP1E3D1/asolectin nanodiscs, with ATP, Mg2+ and Spd; map at 3.5 Å
[3] = biological target: the molecule itself; assay: cryo-EM structure; PotD-PotABC E173Q complex formed with Spd, ATP and Mg2+, in LMNG; Spd-bound pretranslocation state (3.1 Å) and ATP-bound translocation intermediate state (3 Å; dataset 2 with 3 mM Fos-Choline-8)

Row | Binder | binding result [1] | other results
1 | PotB (natural protein, E. coli K12, UniProt P0AFK4 1-275, looked up, PotB, transmembrane subunit, E. coli K12; the entire potABCD operon was cloned; Subunit of the PotABC complexes, written alone for the pairs within the solved complexes; source: E. coli C41, co-expressed and purified as part of the PotABC complex (Ni-NTA, SEC in LMNG; wild-type complex also in nanodiscs)) MIVTIVGWLVLFVFLPNLMIIGTSFLTRDDASFVKMVFTLDNYTRLLDPLYFEVLLHSLNMALIATLACLVLGYPFAWFLAKLPHKVRPLLLFLLIVPFWTNSLIRIYGLKIFLSTKGYLNEFLLWLGVIDTPIRIMFTPSAVIIGLVYILLPFMVMPLYSSIEKLDKPLLEAARDLGASKLQTFIRIIIPLTMPGIIAGCLLVMLPAMGLFYVSDLMGGAKNLLIGNVIKVQFLNIRDWPFGAATSITLTIVMGLMLLVYWRASRLLNKKVELE | binds | –
2 | PotC (natural protein, E. coli K12, UniProt P0AFK6 1-264, looked up, PotC, transmembrane subunit, E. coli K12; the entire potABCD operon was cloned; Subunit of the PotABC complexes, written alone for the pairs within the solved complexes; That the tag sits on PotC is surmised; source: E. coli C41, co-expressed and purified as part of the PotABC complex (Ni-NTA, SEC in LMNG; wild-type complex also in nanodiscs); not shown: His6 (inferred on PotC: C-terminal tag of …)) MIGRLLRGGFMTAIYAYLYIPIIILIVNSFNSSRFGINWQGFTTKWYSLLMNNDSLLQAAQHSLTMAVFSATFATLIGSLTAVALYRYRFRGKPFVSGMLFVVMMSPDIVMAISLLVLFMLLGIQLGFWSLLFSHITFCLPFVVVTVYSRLKGFDVRMLEAAKDLGASEFTILRKIILPLAMPAVAAGWVLSFTLSMDDVVVSSFVTGPSYEILPLKIYSMVKVGVSPEVNALATILLVLSLVMVIASQLIARDKTKGNTGDVK | binds | –
3 | PotA (wild type) (natural protein, E. coli K12, UniProt P69874 1-378, looked up, PotA, cytosolic ATPase subunit, E. coli K12; the entire potABCD operon was cloned; Subunit of the wild-type PotABC complex solved in nanodiscs) MGQSKKLNKQPSSLSPLVQLAGIRKCFDGKEVIPQLDLTINNGEFLTLLGPSGCGKTTVLRLIAGLETVDSGRIMLDNEDITHVPAENRYVNTVFQSYALFPHMTVFENVAFGLRMQKTPAAEITPRVMEALRMVQLETFAQRKPHQLSGGQQQRVAIARAVVNKPRLLLLDESLSALDYKLRKQMQNELKALQRKLGITFVFVTHDQEEALTMSDRIVVMRDGRIEQDGTPREIYEEPKNLFVAGFIGEINMFNATVIERLDEQRVRANVEGRECNIYVNFAVEPGQKLHVLLRPEDLRVEEINDDNHAEGLIGYVRERNYKGMTLESVVELENGKMVMVSEFFNEDDPDFDHSLDQKMAINWVESWEVVLADEEHK | – | binding result [2]: binds
4 | PotA E173Q (natural protein, E. coli K12, UniProt P69874 1-378, looked up, PotA, cytosolic ATPase subunit (NBD and regulatory domain), E. coli K12; the entire potABCD operon was cloned; Subunit of m1, written alone for the pairs within the solved complexes; source: E. coli C41, co-expressed and purified as part of the PotABC E173Q complex (Ni-NTA, SEC in LMNG)) MGQSKKLNKQPSSLSPLVQLAGIRKCFDGKEVIPQLDLTINNGEFLTLLGPSGCGKTTVLRLIAGLETVDSGRIMLDNEDITHVPAENRYVNTVFQSYALFPHMTVFENVAFGLRMQKTPAAEITPRVMEALRMVQLETFAQRKPHQLSGGQQQRVAIARAVVNKPRLLLLDQSLSALDYKLRKQMQNELKALQRKLGITFVFVTHDQEEALTMSDRIVVMRDGRIEQDGTPREIYEEPKNLFVAGFIGEINMFNATVIERLDEQRVRANVEGRECNIYVNFAVEPGQKLHVLLRPEDLRVEEINDDNHAEGLIGYVRERNYKGMTLESVVELENGKMVMVSEFFNEDDPDFDHSLDQKMAINWVESWEVVLADEEHK | – | stoichiometry N [3]: 2
